Numbered stars: 1 amine (or outer) side, 2 acyl side, 3 side chain; on linkers, the order of the positions; unused ones are H or OH. Bridge positions count the residues as written; N and C are the ends. Side chains are listed from the residue outwards. Ends that are not written are not given here. * marks the point of attachment. C20 diacid = O=C(O)CCCCCCCCCCCCCCCCCCC(=O)*; C16 diacid = O=C(O)CCCCCCCCCCCCCCC(=O)*; γGlu = O=C(O)[C@H](CCC(=O)[*:2])N[*:1]; AEEA = NCCOCCOCC(=O)O
B1: N^ε1-[(4S)-4-carboxy-4-(19-carboxynonadecanoylamino)butanoyl]-[Glu14,Arg17,Pro21,Pro27,Pro34,Arg35]-h-amylin (peptide)
peptide: K([γGlu-C20 diacid])CNTATCATQRLAEFLRHSSPNFGAIPSSTNVGPRTY-NH2
modifications: disulfide 2-7; N-terminus assumed
SMILES: CC[C@H](C)[C@H](NC(=O)[C@H](C)NC(=O)CNC(=O)[C@H](Cc1ccccc1)NC(=O)[C@H](CC(N)=O)NC(=O)[C@@H]1CCCN1C(=O)[C@H](CO)NC(=O)[C@H](CO)NC(=O)[C@H](Cc1c[nH]cn1)NC(=O)[C@H](CCCNC(=N)N)NC(=O)[C@H](CC(C)C)NC(=O)[C@H](Cc1ccccc1)NC(=O)[C@H](CCC(=O)O)NC(=O)[C@H](C)NC(=O)[C@H](CC(C)C)NC(=O)[C@H](CCCNC(=N)N)NC(=O)[C@H](CCC(N)=O)NC(=O)[C@@H](NC(=O)[C@H](C)NC(=O)[C@@H]1CSSC[C@H](NC(=O)[C@@H](N)CCCCNC(=O)CC[C@H](NC(=O)CCCCCCCCCCCCCCCCCCC(=O)O)C(=O)O)C(=O)N[C@@H](CC(N)=O)C(=O)N[C@@H]([C@@H](C)O)C(=O)N[C@@H](C)C(=O)N[C@@H]([C@@H](C)O)C(=O)N1)[C@@H](C)O)C(=O)N1CCC[C@H]1C(=O)N[C@@H](CO)C(=O)N[C@@H](CO)C(=O)N[C@H](C(=O)N[C@@H](CC(N)=O)C(=O)N[C@H](C(=O)NCC(=O)N1CCC[C@H]1C(=O)N[C@@H](CCCNC(=N)N)C(=O)N[C@H](C(=O)N[C@@H](Cc1ccc(O)cc1)C(N)=O)[C@@H](C)O)C(C)C)[C@@H](C)O
notes: not restated for each compound

biological target: T1, rat calcitonin receptor (rat, UniProt P32214 25-516); experiment: ratio of IC50 on rat calcitonin receptor (Assay VIII) to IC50 on rat amylin receptor (Assay VI)
T1 construct: whole, on cells; Used as membranes prepared from the transfected cells (Assay VIII); also called rCTR; rat calcitonin (a) receptor
T1 sequence (looked up): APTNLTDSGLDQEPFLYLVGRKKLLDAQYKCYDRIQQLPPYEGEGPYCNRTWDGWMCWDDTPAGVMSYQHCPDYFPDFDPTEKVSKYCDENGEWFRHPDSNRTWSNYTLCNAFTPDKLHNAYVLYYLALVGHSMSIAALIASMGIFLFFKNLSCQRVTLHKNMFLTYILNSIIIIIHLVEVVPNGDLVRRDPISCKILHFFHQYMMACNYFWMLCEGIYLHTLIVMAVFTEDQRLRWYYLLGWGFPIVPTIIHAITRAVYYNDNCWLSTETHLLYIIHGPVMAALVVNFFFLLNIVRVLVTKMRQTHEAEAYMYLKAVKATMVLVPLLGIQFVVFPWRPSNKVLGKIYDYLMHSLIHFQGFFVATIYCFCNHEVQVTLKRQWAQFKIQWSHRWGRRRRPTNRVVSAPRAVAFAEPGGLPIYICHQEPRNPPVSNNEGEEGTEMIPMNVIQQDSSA

| Binder | Ratio rCT/rAmylin binding |
| --- | --- |
| B1 | 45.5 |

biological target: T1, rat calcitonin receptor; experiment: SPA competition binding, displacement of 125I-calcitonin from membranes of BHK tk'ts 13 cells transfected with rat calcitonin receptor (Assay VIII)

| Binder | IC50 [nM] |
| --- | --- |
| B1 | 15.4 |

biological target: T2, human calcitonin receptor (human, UniProt P30988 25-474); experiment: ratio of IC50 on human calcitonin receptor (Assay VII) to IC50 on human amylin receptor (Assay V)
T2 construct: whole, on cells; Used as membranes prepared from the transfected cells (Assay VII); also called hCTR; hCT
T2 sequence (looked up): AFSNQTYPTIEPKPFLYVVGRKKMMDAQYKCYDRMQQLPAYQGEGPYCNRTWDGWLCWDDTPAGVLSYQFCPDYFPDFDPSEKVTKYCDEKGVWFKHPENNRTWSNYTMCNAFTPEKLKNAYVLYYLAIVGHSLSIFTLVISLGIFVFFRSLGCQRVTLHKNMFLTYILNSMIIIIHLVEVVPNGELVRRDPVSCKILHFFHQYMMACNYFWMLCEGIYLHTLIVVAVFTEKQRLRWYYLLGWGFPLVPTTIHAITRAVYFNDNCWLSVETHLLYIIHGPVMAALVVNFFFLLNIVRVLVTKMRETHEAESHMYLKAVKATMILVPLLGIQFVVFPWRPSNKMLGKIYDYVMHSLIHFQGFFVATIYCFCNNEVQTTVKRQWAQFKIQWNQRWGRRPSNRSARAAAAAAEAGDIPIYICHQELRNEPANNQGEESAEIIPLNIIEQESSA
How it was run: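 Membranes (35 ng/μL final) + SPA beads, 50 mM Hepes pH 7.4 buffer with 1 mM CaCl2, 5 mM MgCl₂, 0.1% OA, 0.02% Tween20; 120 min, 25° C, shaking; centrifuged, counted; IC₅₀ by one-site binding competition.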

| Binder | Ratio hCT/hAmylin binding |
| --- | --- |
| B1 | 38.6 |

biological target: T3, rat amylin receptor (rat calcitonin receptor + rat RAMP 3) (rat, UniProt P32214 25-516; Q9JJ73 23-147); experiment: SPA competition binding, displacement of 125I-rat amylin from membranes of BHK tk'ts 13 cells transfected with rat calcitonin receptor + rat RAMP 3 (Assay VI)
T3 construct: whole, on cells; Used as membranes prepared from the transfected cells (Assay VI); also called rAmylin-R; rat amylin 3(a) receptor
T3 sequence (looked up) 1: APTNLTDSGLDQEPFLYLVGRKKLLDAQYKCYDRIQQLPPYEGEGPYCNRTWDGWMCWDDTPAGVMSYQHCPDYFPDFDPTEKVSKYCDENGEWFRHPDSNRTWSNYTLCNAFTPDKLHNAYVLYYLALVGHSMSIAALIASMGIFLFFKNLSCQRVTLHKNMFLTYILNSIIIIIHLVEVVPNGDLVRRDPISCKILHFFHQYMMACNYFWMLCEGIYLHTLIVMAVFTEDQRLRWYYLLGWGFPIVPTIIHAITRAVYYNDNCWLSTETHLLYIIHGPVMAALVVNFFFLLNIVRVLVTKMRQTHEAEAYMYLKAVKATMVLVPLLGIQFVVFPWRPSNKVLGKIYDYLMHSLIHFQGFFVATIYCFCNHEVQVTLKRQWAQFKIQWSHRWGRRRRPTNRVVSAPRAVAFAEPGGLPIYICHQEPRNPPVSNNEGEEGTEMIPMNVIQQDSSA
T3 sequence (looked up) 2: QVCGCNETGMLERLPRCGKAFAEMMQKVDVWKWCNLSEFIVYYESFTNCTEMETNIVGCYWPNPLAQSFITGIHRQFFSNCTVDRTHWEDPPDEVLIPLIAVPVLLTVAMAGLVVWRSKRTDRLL

| Binder | IC50 [nM] |
| --- | --- |
| B1 | 0.339 |

biological target: T4, human calcitonin receptor (human, UniProt P30988 25-474); experiment: cell-based or functional assay
T4 sequence (looked up): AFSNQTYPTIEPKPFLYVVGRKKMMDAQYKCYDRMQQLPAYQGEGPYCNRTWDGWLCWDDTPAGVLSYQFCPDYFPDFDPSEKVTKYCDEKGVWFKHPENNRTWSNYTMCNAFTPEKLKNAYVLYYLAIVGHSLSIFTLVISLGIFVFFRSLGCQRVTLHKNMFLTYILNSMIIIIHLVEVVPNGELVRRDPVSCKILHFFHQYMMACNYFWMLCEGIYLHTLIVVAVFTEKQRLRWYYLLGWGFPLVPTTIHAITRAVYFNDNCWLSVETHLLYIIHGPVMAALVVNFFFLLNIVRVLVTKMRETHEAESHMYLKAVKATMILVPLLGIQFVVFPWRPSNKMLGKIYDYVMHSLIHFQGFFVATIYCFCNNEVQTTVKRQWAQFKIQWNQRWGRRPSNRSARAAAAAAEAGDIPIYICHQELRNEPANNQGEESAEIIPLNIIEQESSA

| Binder | Ratio hCT/hAmylin funct. |
| --- | --- |
| K([AEEA-AEEA-γGlu-C20 diacid])CNTATCATQRLANFLRHSSPNFGAIPSSTNVGPNTY-NH2 (disulfide 2-7 (inferred), also called compound 98) | 19.5 |
| K([γGlu-γGlu-C20 diacid])CNTATCATQRLANFLRHSSPNFGAIPSSTPVGPRTY-NH2 (disulfide 2-7 (inferred)) | 26 |
| K([γGlu-γGlu-C20 diacid])CNTATCATQRLAEFLRHSSPNFGAIPSSTNVGPRTY-NH2 (disulfide 2-7 (inferred), also called compound 110) | 29.3 |
| K([γGlu-C16 diacid])CNTATCATQRLANFLRHSSPNFGAIPSSTNVGHNTY-NH2 (disulfide 2-7 (inferred)) [N^ε1-[(4S)-4-carboxy-4-(15-carboxypentadecanoylamino)butanoyl]-[Arg17,Pro21,Pro27,His34]-h-amylin] | 65.1 |
| K([AEEA-AEEA-γGlu-C20 diacid])CNTATCATQRLANFLRHSSPNFGAIPSSTNVGRNTY-NH2 (disulfide 2-7 (inferred), also called compound 95) | 33 |
| K([γGlu-C20 diacid])CNTATCATQRLADFLRHSSPNFGAIPSSTNVGPRTY-NH2 (disulfide 2-7 (inferred)) | 24.9 |
| K([γGlu-γGlu-C20 diacid])CNTATCATQRLAEFLRHSSPNFGAIPSSTNVGHETY-NH2 (disulfide 2-7 (inferred)) | 15.8 |
| K([γGlu-C20 diacid])CNTATCATQRLAEFLRHSSPNFGAIPSSTNVGPRTY-NH2 (disulfide 2-7 (inferred)) | 17 |

Reference: patent US20140087995A1 (published 2014)
